Reference: paper PMC5788864

Assays:
[1] = target: Zika virus NS5 RNA-dependent polymerase (RdRp) domain, amino acids 275-903, strain FSS13025, HA-tag (Zika virus strain FSS13025); experiment: co-IP
[2] = target: Zika virus NS5 methyltransferase (MTase) domain, amino acids 1-264, strain FSS13025, HA-tag (Zika virus strain FSS13025); experiment: co-IP

B1: interferon regulatory factor 3 (IRF3), endogenous (natural protein)
chain: MGTPKPRILPWLVSQLDLGQLEGVAWVNKSRTRFRIPWKHGLRQDAQQEDFGIFQAWAEATGAYVPGRDKPDLPTWKRNFRSALNRKEGLRLAEDRSKDPHDPHKIYEFVNSGVGDFSQPDTSPDTNGGGSTSDTQEDILDELLGNMVLAPLPDPGPPSLAVAPEPCPQPLRSPSLDNPTPFPNLGPSENPLKRLLVPGEEWEFEVTAFYRGRQVFQQTISCPEGLRLVGSEVGDRTLPGWPVTLPDPGMSLTDRGVMSYVRHVLSCLGGGLALWRAGQWLWAQRLGHCHTYWAVSEELLPNSGHGPDGEVPKDKEGGVFDLGPFIVDLITFTEGSGRSPRYALWFCVGESWPQDQPWTKRLVMVKVVPTCLRALVEMARVGGASSLENTVDLHISNSHPLSLTSDQYKAYLQDLVEGMDFQGPGES
- percent of the full-length NS5 binding activity to IRF3 [1]: 51%
- percent of the full-length NS5 binding activity to IRF3 [2]: 82%
